From publication PMC10973816

How the values were obtained:
[1] = Non-permeabilised mAb-1438 immunolabelling, HEK, mGluR6-EGFP; settings: glycan lost; control: wild type mGluR6-EGFP
[2] = Non-permeabilised mAb-1438 immunolabelling, HEK, untagged; settings: glycan lost; control: wild type
[3] = EGFP in TRPM1-positive OPL puncta, electroporated mouse retina; settings: glycan lost; control: wild type mGluR6-EGFP
[4] = Permeabilised mAb-1438 immunolabelling, HEK, untagged; settings: glycan lost; control: wild type
[5] = Total EGFP fluorescence, HEK; settings: glycan lost; control: wild type mGluR6-EGFP

B1: mGluR6 (metabotropic glutamate receptor 6): N445Q (protein)
parent chain: MGRLRVLLLWLAWWLSQAGIAHGAGSVRLAGGLTLGGLFPVHARGAAGRACGTLKKEQGVHRLEAMLYALDRINADPELLPGVRLGARLLDTCSRDTYALEQALSFVQALIRGRGDGEEASVRCPGGVPPLRAAPPERVVAVVGASASSVSIMVANVLRLFAIPQISYASTAPELSDSTRYDFFSRVVPPDSYQAQAMVDIVRALGWNYVSTLASEGNYGESGVEAFVQISREAGGVCIAQSIKIPREPKPGEFHKVIRRLMETPNARGIIIFANEDDIRRVLEATRQANLTGHFLWVGSDSWGSKISPILNLEEEAVGAITILPKRASIDGFDQYFMTRSLENNRRNIWFAEFWEENFNCKLTSSGGQSDDSTRKCTGEERIGQDSTYEQEGKVQFVIDAVYAIAHALHSMHQALCPGHTGLCPAMEPTDGRTLLHYIRAVRFNGSAGTPVMFNENGDAPGRYDIFQYQATNGSASSGGYQAVGQWAEALRLDMEALQWSGDPHEVPPSQCSLPCGPGERKKMVKGVPCCWHCEACDGYRFQVDEFTCEACPGHMRPTPNHTGCRPTPVVRLTWSSPWAALPLLLAVLGIMATTTIIATFMRHNDTPIVRASGRELSYVLLTGIFLIYAITFLMVAEPCAAVCASRRLLLGLGTTLSYSALLTKTNRIYRIFEQGKRSVTPPPFISPTSQLVITFGLTSLQVVGVIAWLGAQPPHSVIDYEEQRTVDPEQARGVLKCDMSDLSLIGCLGYSLLLMVTCTVYAIKARGVPETFNEAKPIGFTMYTTCIIWLAFVPIFFGTAQSAEKIYIQTTTLTVSLSLSASVSLGMLYVPKTYVILFHPEQNVQKRKRSLKKTSTMAAPPKSENSEDAK
- localisation_or_trafficking [1]: decreases
- localisation_or_trafficking [2]: decreases
- localisation_or_trafficking [3]: no change

B2: mGluR6 (metabotropic glutamate receptor 6): 4Q (protein)
parent chain: MGRLRVLLLWLAWWLSQAGIAHGAGSVRLAGGLTLGGLFPVHARGAAGRACGTLKKEQGVHRLEAMLYALDRINADPELLPGVRLGARLLDTCSRDTYALEQALSFVQALIRGRGDGEEASVRCPGGVPPLRAAPPERVVAVVGASASSVSIMVANVLRLFAIPQISYASTAPELSDSTRYDFFSRVVPPDSYQAQAMVDIVRALGWNYVSTLASEGNYGESGVEAFVQISREAGGVCIAQSIKIPREPKPGEFHKVIRRLMETPNARGIIIFANEDDIRRVLEATRQANLTGHFLWVGSDSWGSKISPILNLEEEAVGAITILPKRASIDGFDQYFMTRSLENNRRNIWFAEFWEENFNCKLTSSGGQSDDSTRKCTGEERIGQDSTYEQEGKVQFVIDAVYAIAHALHSMHQALCPGHTGLCPAMEPTDGRTLLHYIRAVRFNGSAGTPVMFNENGDAPGRYDIFQYQATNGSASSGGYQAVGQWAEALRLDMEALQWSGDPHEVPPSQCSLPCGPGERKKMVKGVPCCWHCEACDGYRFQVDEFTCEACPGHMRPTPNHTGCRPTPVVRLTWSSPWAALPLLLAVLGIMATTTIIATFMRHNDTPIVRASGRELSYVLLTGIFLIYAITFLMVAEPCAAVCASRRLLLGLGTTLSYSALLTKTNRIYRIFEQGKRSVTPPPFISPTSQLVITFGLTSLQVVGVIAWLGAQPPHSVIDYEEQRTVDPEQARGVLKCDMSDLSLIGCLGYSLLLMVTCTVYAIKARGVPETFNEAKPIGFTMYTTCIIWLAFVPIFFGTAQSAEKIYIQTTTLTVSLSLSASVSLGMLYVPKTYVILFHPEQNVQKRKRSLKKTSTMAAPPKSENSEDAK
- expression_or_secretion [4]: decreases
- expression_or_secretion [5]: decreases
- localisation_or_trafficking [2]: abolishes
- localisation_or_trafficking [3]: abolishes

B3: mGluR6 (metabotropic glutamate receptor 6): N561Q (protein)
parent chain: MGRLRVLLLWLAWWLSQAGIAHGAGSVRLAGGLTLGGLFPVHARGAAGRACGTLKKEQGVHRLEAMLYALDRINADPELLPGVRLGARLLDTCSRDTYALEQALSFVQALIRGRGDGEEASVRCPGGVPPLRAAPPERVVAVVGASASSVSIMVANVLRLFAIPQISYASTAPELSDSTRYDFFSRVVPPDSYQAQAMVDIVRALGWNYVSTLASEGNYGESGVEAFVQISREAGGVCIAQSIKIPREPKPGEFHKVIRRLMETPNARGIIIFANEDDIRRVLEATRQANLTGHFLWVGSDSWGSKISPILNLEEEAVGAITILPKRASIDGFDQYFMTRSLENNRRNIWFAEFWEENFNCKLTSSGGQSDDSTRKCTGEERIGQDSTYEQEGKVQFVIDAVYAIAHALHSMHQALCPGHTGLCPAMEPTDGRTLLHYIRAVRFNGSAGTPVMFNENGDAPGRYDIFQYQATNGSASSGGYQAVGQWAEALRLDMEALQWSGDPHEVPPSQCSLPCGPGERKKMVKGVPCCWHCEACDGYRFQVDEFTCEACPGHMRPTPNHTGCRPTPVVRLTWSSPWAALPLLLAVLGIMATTTIIATFMRHNDTPIVRASGRELSYVLLTGIFLIYAITFLMVAEPCAAVCASRRLLLGLGTTLSYSALLTKTNRIYRIFEQGKRSVTPPPFISPTSQLVITFGLTSLQVVGVIAWLGAQPPHSVIDYEEQRTVDPEQARGVLKCDMSDLSLIGCLGYSLLLMVTCTVYAIKARGVPETFNEAKPIGFTMYTTCIIWLAFVPIFFGTAQSAEKIYIQTTTLTVSLSLSASVSLGMLYVPKTYVILFHPEQNVQKRKRSLKKTSTMAAPPKSENSEDAK
- localisation_or_trafficking [1]: decreases
- expression_or_secretion [5]: decreases
- localisation_or_trafficking [2]: decreases
- localisation_or_trafficking [3]: no change
